Experimental findings from the supplement of paper PMC12042874 are described below.

± gives the uncertainty stated by the source.

The series in a line: amyloid nucleation score (Sup35N fusion, yeast selection) (log enrichment); library NNK3; higher = more nucleation; inactive = no reads after selection. Put shortly:
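The nucleation score is a DiMSum log enrichment of output over input reads, centred on the mode score of non-aggregating sequences. Sequences under 100 input reads were excluded, and reads came from Illumina sequencing of plasmid inserts. Psi-negative yeast expressing Sup35N fused to peptides of 20 random codons were induced with 100 μM copper sulfate for 24 hours and grown 7 days at 30°C on medium lacking adenine and uracil. Random libraries had three technical output replicates.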
With YCDLY, the amyloid nucleation score result is “inactive”.

YCGLVHVSHLGVGREIGRRV: the amyloid nucleation score result was “inactive”. Turning to YCGYNR, the amyloid nucleation score result is “inactive”. The value for YCKSPVSANMHMNNGNTGSC was “inactive”; that for YCLRSSTGSEVRQWDDDSFK was “inactive”; that for YCMYMCFSVMAGGGIVTMLW was “inactive”. The value for YCSIGLLCTSCIASVGIWVI was “inactive”; that for YCSVFRES was 0.014 ± 0.63; that for YCTFDVCGFSSASSEGFNTA was 0.465 ± 0.32.

As to YCTGLIFPAFSNLEDSTLLF, the amyloid nucleation score result was “inactive”. For YCTRNTCEIVGCILCGGLLS, the amyloid nucleation score was 2.45 ± 0.086. YCVLLRCNFFRSL: the amyloid nucleation score result was “inactive”. The figure for YCVQYVNDRQL is 1.85 ± 0.082. In the case of YDDVVVI, the amyloid nucleation score result is “inactive”. YDGQMVRVRLYPSWEQVYCV displayed an amyloid nucleation score of -1.1 ± 1.4.

Consider YDKQENVEGLFALF, for which the amyloid nucleation score result was “inactive”. As to YDMVLRSHATVAYSHYGFDM, the amyloid nucleation score result is “inactive”. YDRNLNMCLQEMHRNIR: the amyloid nucleation score result was “inactive”. Turning to YDTAVYIIELGCNDNKSWVR, the amyloid nucleation score result is “inactive”. The entry for YDWSVPAKSS is “inactive”. Take YEYWYFCRDDNNFVYLIR: the amyloid nucleation score entry is “inactive”. Substance YFFCCLR had an amyloid nucleation score of 2.44 ± 0.059. The entry for YFFFLRICWMDSSLVFGLLS is “inactive”; for YFFSDNRNFRVNPVSNR it is “inactive”; for YFGFIVKISYTVLFGLGSKC it is “inactive”. With YFINKMILIDPL, the amyloid nucleation score result was “inactive”. The value for YFMCREMALILEHLCEAGWC was “inactive”; that for YFMVINR was 1.98 ± 0.071; that for YFNLPISW was -0.316 ± 0.7. The value for YFRGPF was “inactive”; that for YFSFFQRVLWYRCAASFNLQ was -0.106 ± 0.63. The value for YFSKVIVDLKNSCIL was “inactive”; that for YFSMIVVGCVNFKELPDNRV was 1.78 ± 0.086; that for YFSQVGRDCMFR was “inactive”.

As for YFVFKIRKDVELLVYI, the amyloid nucleation score entry was “inactive”.

For YFYKNLSSFHFGKMRLK, the amyloid nucleation score entry is “inactive”. The value for YFYLSICDVSMVGSEFIYSR was 0.373 ± 0.2; that for YGCCVSGMYVALGLQ was 2.8 ± 0.068. The entry for YGEEEVE is “inactive”.

For the substance YGETAMRRSLTSLYNHMSLN, the amyloid nucleation score result is “inactive”. The entry for YGFNNWYKPSDLSRTPSESG is “inactive”; for YGGDWCARTPCLSRVNSVKP it is “inactive”. In the case of YGILLFGVSWWWAVSFFENF, the amyloid nucleation score result was “inactive”. The entry for YGPKV is “inactive”; for YGRLLVGFLTITV it is “inactive”.

As to YGSMMHWKSLCLSSIC, the amyloid nucleation score entry was “inactive”. YGSNSLPYKTGVYVKLSCN: the amyloid nucleation score result was “inactive”. Regarding YGSYVWYSLLVREWLNSPGY, the amyloid nucleation score result was “inactive”.

Regarding YGTMFLENTYNPFPVGSHVF, the amyloid nucleation score result was “inactive”. Regarding YGTSATKRTALFWYDMTKFG, the amyloid nucleation score result was “inactive”. The entry for YHLSSMVTVWKDSVMLAT is “inactive”. YHRTFWSFGSKVFLRVNWCR: the amyloid nucleation score result was “inactive”. For YHTYKDSRTGFFMGQHSCMS, the amyloid nucleation score result is “inactive”. Consider YIGIHLTSFRSTSSYYDRVL, for which the amyloid nucleation score entry was “inactive”. YIGTYLLMSYGDSRPRKEMR yielded an amyloid nucleation score of 1.47 ± 0.088. The value for YIHIGAM was “inactive”; that for YIKRTIFTYYYRERMIADSY was “inactive”. The figure for YILNITNLWSLCLCRLCRKD is 3.08 ± 0.078; for YINSFCTRKSYIY it is “inactive”; for YIQSNCEFMHPVCIIIFACV it is 1.16 ± 0.11.

As to YIRIDTGLLCVCGLSQEGVV, the amyloid nucleation score result is “inactive”.

Turning to YISSFRGDIVIY, the amyloid nucleation score entry is “inactive”. The figure for YISSPSIWLCISCEHRGTSA is 2.92 ± 0.07; for YIYDSLWW it is “inactive”.

As to YIYVIGWGNVLCGI, the amyloid nucleation score was 2.22 ± 0.079. The value for YKANFMGFSIYKRVGTRVWQ was 0.15 ± 0.75; that for YKDIRCGWLMFGVANLQ was “inactive”; that for YKFGVTPWLRFILSNVRKMM was “inactive”. With YKGFKRIGLEGQFVSSYLFY, the amyloid nucleation score result is “inactive”. As for YKQHYRRSRHCIKHYVGGSE, the amyloid nucleation score result was “inactive”. The value for YKVKIPMVCAVISGKSTWVG was “inactive”; that for YLDKCIVVCFRVRNSNSFWL was 2.42 ± 0.065; that for YLDKRYVVGVFMLDSNLDLS was “inactive”. The value for YLDNVFNGPAFLYSGSRDR was 1.02 ± 0.18; that for YLDRKVCSGNALRYLK was “inactive”. YLFSELYMLNLSRFAK: the amyloid nucleation score entry is “inactive”. The value for YLGRFNSKFMTSVLIMYYP was “inactive”; that for YLICLVWKELLARAHIAELC was 0.28 ± 0.2; that for YLIGRGVMVFNFPWLLHHTN was 1.58 ± 0.1.

With YLIGYDT, the amyloid nucleation score came out at 0.366 ± 0.65. The value for YLLCF was “inactive”; that for YLLLDYGTRSFLYDRYRYIR was 0.067 ± 0.68; that for YLLMTGVWWYYQMCVVVYM was “inactive”. The entry for YLSGIPTVVIHVIFGMKDW is “inactive”. The value for YLSGKLFTRAP was “inactive”. Regarding YLSPVKRRYD, the amyloid nucleation score entry is “inactive”. As to YLTCVVKRTVH, the amyloid nucleation score result is “inactive”. In turn, YLVYNYFMRDHWGLSVYLSR gave an amyloid nucleation score of 0.641 ± 0.18. YLWARNGDLLLSCCSLNSCM showed an amyloid nucleation score of 2.52 ± 0.061.

Take YMCGSGCF: the amyloid nucleation score result was “inactive”. As for YMCKCSYVEMTHSA, the amyloid nucleation score result was “inactive”.

YMGPKDSELDSNRAGCDMSC: the amyloid nucleation score entry was “inactive”.

As for YMGYWFKFFTFSGDQVTIGR, the amyloid nucleation score is 0.718 ± 0.14.

In the case of YMLLQERLECSSLVDVSYVR, the amyloid nucleation score entry was “inactive”.

Take YMRAIHRCCAYLVRGLGSGT: the amyloid nucleation score result was “inactive”.

On to YMRSIGSIFFILYCMQSAHG, for which the amyloid nucleation score was 0.121 ± 0.33. The entry for YNGFSLIRFILFAHG is “inactive”; for YNLRYLVYYLDLLSPVNQMG it is “inactive”; for YNNTVCL it is “inactive”. The entry for YNSFEFGVMSAL is “inactive”; for YNVSINYVGENDGWEACFLS it is 0.666 ± 0.12; for YPHREQVRRSL it is “inactive”.

Consider YPRPLFVRNLDVFHWLYTAV, for which the amyloid nucleation score result was “inactive”. YQLFWRLALFCPVYGCVYLM yielded an amyloid nucleation score of -0.027 ± 0.35. As for YQVHWFSNYTTAWMNYVSTV, the amyloid nucleation score result was “inactive”. YQVRV showed an amyloid nucleation score of 0.056 ± 0.33. The value for YRAFTFIGCLNGLTNQHFFY was 2.4 ± 0.059; that for YRDFSEGSFPLIRVLMGMVG was “inactive”. The entry for YRDRFAKSSYKSPKMYQYGS is “inactive”. YRELSTLREEMHIRY: the amyloid nucleation score entry is “inactive”. The entry for YRGKIGTWECGVISYETAAT is “inactive”; for YRGLGRDSHTHCRNHVLLTL it is “inactive”. The value for YRINDKSFNVISGIVFSVVR was “inactive”; that for YRKLVVSPLGILPKYRTPCC was “inactive”; that for YRLAN was “inactive”. As to YRLQSLNPPISPVNHTNCSS, the amyloid nucleation score result was “inactive”. As to YRLRNSS, the amyloid nucleation score result is “inactive”. The figure for YRMSR is 1.36 ± 0.1; for YRNLWNIHTVISIASL it is “inactive”; for YRQRWSRLCAGQSLYNCGKC it is “inactive”. Turning to YRRAREWGNDDFLNG, the amyloid nucleation score was 0.785 ± 0.12. YRYLVFLRLNLSLRILFGFK: the amyloid nucleation score result was “inactive”. The value for YRYNNLKRCGNSAQWLAISS was -0.08 ± 0.34. The value for YSAAYEIIIFICQCCNLKVG was “inactive”; that for YSATGIPSCWRLNFVENLRT was “inactive”; that for YSDLKSFLLNVIGRNKSIGM was “inactive”. The figure for YSEKDLIHRRIFVVNGRS is 1.13 ± 0.12; for YSGLDSCVD it is “inactive”; for YSIKNGYGFRQSWYKQVLKL it is “inactive”. For YSKEWVFISIIQKLADGQCN, the amyloid nucleation score was -0.182 ± 0.66. For the substance YSKFFTENVYNSISGAMPHF, the amyloid nucleation score entry was “inactive”. Take YSLNCYYFSLGLN: the amyloid nucleation score result is “inactive”. The entry for YSLNGAY is “inactive”.
